According to US20150344570A1 (published 2015):

These binders were tested against T1, FcγRIa (human, UniProt P12314 16-292) (assay: SPR (Biacore), antibody captured on antigen-peptide chip, FcγRIa as analyte; binding activity relative to control GpH7-B3/GpL16-k0 (HoCon Ab) x100).
T1 construct: extracellular domain; Soluble extracellular domain with C-terminal His tag, expressed in FreeStyle293 cells; analyte in Biacore; also called FcgRI; CD64; not shown: His tag attached to the C terminus
Description: Analysis of interaction between objective antibody and the FcγR was carried out using Biacore T100 (GE Healthcare). HBS-EP+ (GE Healthcare) was used as the running buffer, and the measurement temperature was set to 25° C. Chips produced by immobilizing the antigen peptide by the amine coupling method to a Series S Sencor Chip CM5 (GE Healthcare), or alternatively, chips produced by allowing preliminarily biotinylated antigen peptides to interact with and immobilize onto a Series S Sensor Chip SA (certified) (GE Healthcare) were used. Antibodies of interest were captured onto an antigen peptide-immobilized chip, and allowed to interact to each FcγR diluted with running buffer. To regenerate and repeatedly use the chip, the antibodies captured on the chip were washed off by reacting 10 mM glycine-HCl, pH 1.5.

T1 sequence (P12314 16-292): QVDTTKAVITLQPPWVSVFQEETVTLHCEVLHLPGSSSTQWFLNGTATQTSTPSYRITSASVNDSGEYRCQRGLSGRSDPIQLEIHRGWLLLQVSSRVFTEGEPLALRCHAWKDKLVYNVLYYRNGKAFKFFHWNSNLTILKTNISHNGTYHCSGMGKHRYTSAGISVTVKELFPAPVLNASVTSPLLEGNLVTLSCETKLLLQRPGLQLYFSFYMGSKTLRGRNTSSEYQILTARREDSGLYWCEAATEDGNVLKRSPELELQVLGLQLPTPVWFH

Ho/Con_1a	Binder
105 % of control (=100)	GpH7-B3 variant Y296_13S/GpL16-k0 (homodimerized antibody, Ho Ab) (antibody, human IgG1, kappa, Anti-glypican-3 IgG1 (G1d with K439E); same alteration in both H chains) heavy: not shown light: DIVMTQSPLSLPVTPGEPASISCQASESLVHSNRNTYLHWYLQKPGQSPQLLIYKVSNRFSGVPDRFSGSGSGTDFTLKISRVEAEDVGVYYCSQNTHVPPTFGQGTKVEIERTVAAPSVFIFPPSDEQLKSGTASVVCLLNNFYPREAKVQWKVDNALQSGNSQESVTEQDSKDSTYSLSSTLTLSKADYEKHKVYACEVTHQGLSSPVTKSFNRGEC
105 % of control (=100)	GpH7-B3 variant Y296_18N/GpL16-k0 (homodimerized antibody, Ho Ab) (antibody, human IgG1, kappa, Anti-glypican-3 IgG1 (G1d with K439E); same alteration in both H chains) heavy: not shown light: DIVMTQSPLSLPVTPGEPASISCQASESLVHSNRNTYLHWYLQKPGQSPQLLIYKVSNRFSGVPDRFSGSGSGTDFTLKISRVEAEDVGVYYCSQNTHVPPTFGQGTKVEIERTVAAPSVFIFPPSDEQLKSGTASVVCLLNNFYPREAKVQWKVDNALQSGNSQESVTEQDSKDSTYSLSSTLTLSKADYEKHKVYACEVTHQGLSSPVTKSFNRGEC
110 % of control (=100)	GpH7-B3 variant Y300_20W/GpL16-k0 (homodimerized antibody, Ho Ab) (antibody, human IgG1, kappa, Anti-glypican-3 IgG1 (G1d with K439E); same alteration in both H chains) heavy: not shown light: DIVMTQSPLSLPVTPGEPASISCQASESLVHSNRNTYLHWYLQKPGQSPQLLIYKVSNRFSGVPDRFSGSGSGTDFTLKISRVEAEDVGVYYCSQNTHVPPTFGQGTKVEIERTVAAPSVFIFPPSDEQLKSGTASVVCLLNNFYPREAKVQWKVDNALQSGNSQESVTEQDSKDSTYSLSSTLTLSKADYEKHKVYACEVTHQGLSSPVTKSFNRGEC
110 % of control (=100)	GpH7-B3 variant Y300_14T/GpL16-k0 (homodimerized antibody, Ho Ab) (antibody, human IgG1, kappa, Anti-glypican-3 IgG1 (G1d with K439E); same alteration in both H chains) heavy: not shown light: DIVMTQSPLSLPVTPGEPASISCQASESLVHSNRNTYLHWYLQKPGQSPQLLIYKVSNRFSGVPDRFSGSGSGTDFTLKISRVEAEDVGVYYCSQNTHVPPTFGQGTKVEIERTVAAPSVFIFPPSDEQLKSGTASVVCLLNNFYPREAKVQWKVDNALQSGNSQESVTEQDSKDSTYSLSSTLTLSKADYEKHKVYACEVTHQGLSSPVTKSFNRGEC
109 % of control (=100)	GpH7-B3 variant Y300_08L/GpL16-k0 (homodimerized antibody, Ho Ab) (antibody, human IgG1, kappa, Anti-glypican-3 IgG1 (G1d with K439E); same alteration in both H chains) heavy: not shown light: DIVMTQSPLSLPVTPGEPASISCQASESLVHSNRNTYLHWYLQKPGQSPQLLIYKVSNRFSGVPDRFSGSGSGTDFTLKISRVEAEDVGVYYCSQNTHVPPTFGQGTKVEIERTVAAPSVFIFPPSDEQLKSGTASVVCLLNNFYPREAKVQWKVDNALQSGNSQESVTEQDSKDSTYSLSSTLTLSKADYEKHKVYACEVTHQGLSSPVTKSFNRGEC
111 % of control (=100)	GpH7-B3 variant Y300_09D/GpL16-k0 (homodimerized antibody, Ho Ab) (antibody, human IgG1, kappa, Anti-glypican-3 IgG1 (G1d with K439E); same alteration in both H chains) heavy: not shown light: DIVMTQSPLSLPVTPGEPASISCQASESLVHSNRNTYLHWYLQKPGQSPQLLIYKVSNRFSGVPDRFSGSGSGTDFTLKISRVEAEDVGVYYCSQNTHVPPTFGQGTKVEIERTVAAPSVFIFPPSDEQLKSGTASVVCLLNNFYPREAKVQWKVDNALQSGNSQESVTEQDSKDSTYSLSSTLTLSKADYEKHKVYACEVTHQGLSSPVTKSFNRGEC
106 % of control (=100)	GpH7-B3 variant Y296_20W/GpL16-k0 (homodimerized antibody, Ho Ab) (antibody, human IgG1, kappa, Anti-glypican-3 IgG1 (G1d with K439E); same alteration in both H chains) heavy: not shown light: DIVMTQSPLSLPVTPGEPASISCQASESLVHSNRNTYLHWYLQKPGQSPQLLIYKVSNRFSGVPDRFSGSGSGTDFTLKISRVEAEDVGVYYCSQNTHVPPTFGQGTKVEIERTVAAPSVFIFPPSDEQLKSGTASVVCLLNNFYPREAKVQWKVDNALQSGNSQESVTEQDSKDSTYSLSSTLTLSKADYEKHKVYACEVTHQGLSSPVTKSFNRGEC
111 % of control (=100)	GpH7-B3 variant Y300_10E/GpL16-k0 (homodimerized antibody, Ho Ab) (antibody, human IgG1, kappa, Anti-glypican-3 IgG1 (G1d with K439E); same alteration in both H chains) heavy: not shown light: DIVMTQSPLSLPVTPGEPASISCQASESLVHSNRNTYLHWYLQKPGQSPQLLIYKVSNRFSGVPDRFSGSGSGTDFTLKISRVEAEDVGVYYCSQNTHVPPTFGQGTKVEIERTVAAPSVFIFPPSDEQLKSGTASVVCLLNNFYPREAKVQWKVDNALQSGNSQESVTEQDSKDSTYSLSSTLTLSKADYEKHKVYACEVTHQGLSSPVTKSFNRGEC
110 % of control (=100)	GpH7-B3 variant Y300_19Q/GpL16-k0 (homodimerized antibody, Ho Ab) (antibody, human IgG1, kappa, Anti-glypican-3 IgG1 (G1d with K439E); same alteration in both H chains) heavy: not shown light: DIVMTQSPLSLPVTPGEPASISCQASESLVHSNRNTYLHWYLQKPGQSPQLLIYKVSNRFSGVPDRFSGSGSGTDFTLKISRVEAEDVGVYYCSQNTHVPPTFGQGTKVEIERTVAAPSVFIFPPSDEQLKSGTASVVCLLNNFYPREAKVQWKVDNALQSGNSQESVTEQDSKDSTYSLSSTLTLSKADYEKHKVYACEVTHQGLSSPVTKSFNRGEC
110 % of control (=100)	GpH7-B3 variant Y300_02A/GpL16-k0 (homodimerized antibody, Ho Ab) (antibody, human IgG1, kappa, Anti-glypican-3 IgG1 (G1d with K439E); same alteration in both H chains) heavy: not shown light: DIVMTQSPLSLPVTPGEPASISCQASESLVHSNRNTYLHWYLQKPGQSPQLLIYKVSNRFSGVPDRFSGSGSGTDFTLKISRVEAEDVGVYYCSQNTHVPPTFGQGTKVEIERTVAAPSVFIFPPSDEQLKSGTASVVCLLNNFYPREAKVQWKVDNALQSGNSQESVTEQDSKDSTYSLSSTLTLSKADYEKHKVYACEVTHQGLSSPVTKSFNRGEC
